Data on 1 molecule can be found in PMC2366074.

The target of the assay is T1, inositol monophosphatase (IMPase) (UniProt P29218).
T1 sequence: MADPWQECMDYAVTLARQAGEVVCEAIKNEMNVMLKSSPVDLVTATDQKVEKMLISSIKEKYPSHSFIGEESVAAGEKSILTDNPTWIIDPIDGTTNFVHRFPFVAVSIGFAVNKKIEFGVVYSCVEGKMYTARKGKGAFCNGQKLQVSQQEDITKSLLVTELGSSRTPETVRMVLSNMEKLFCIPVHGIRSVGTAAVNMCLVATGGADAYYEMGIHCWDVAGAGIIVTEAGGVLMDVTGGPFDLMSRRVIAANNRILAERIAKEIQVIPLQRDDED

B1: recombinant calbindin (natural protein)
chain: MAESHLQSSLITASQFFEIWLHFDADGSGYLEGKELQNLIQELQQARKKAGLELSPEMKTFVDQYGQRDDGKIGIVELAHVLPTEENFLLLFRCQQLKSCEEFMKTWRKYDTDHSGFIETEELKNFLKDLLEKANKTVDDTKLAEYTDLMLKLFDSNNDGKLELTEMARLLPVQENFLLKFQGIKMCGKEFNKAFELYDQDGNGYIDENELDALLKDLCEKNKQDLDINNITTYKKNIMALSDGGKLYRTDLALILCAGDN
Regarding B1, the IMPase activity in brain homogenates (Pi release from inositol-1-phosphate) with 20 uM recombinant calbindin amounted to 1.66 fold.
